Test results from US20260250651, “CAS12 PROTEINS AND USES THEREOF” (GUANGZHOU REFORGENE MEDICINE CO., LTD., published 2026).
Where a chain is given by its changes, count along the chain named.

T1: Cas12i-133 (N295R,N260R,G705R,Q971E)
T1 chain: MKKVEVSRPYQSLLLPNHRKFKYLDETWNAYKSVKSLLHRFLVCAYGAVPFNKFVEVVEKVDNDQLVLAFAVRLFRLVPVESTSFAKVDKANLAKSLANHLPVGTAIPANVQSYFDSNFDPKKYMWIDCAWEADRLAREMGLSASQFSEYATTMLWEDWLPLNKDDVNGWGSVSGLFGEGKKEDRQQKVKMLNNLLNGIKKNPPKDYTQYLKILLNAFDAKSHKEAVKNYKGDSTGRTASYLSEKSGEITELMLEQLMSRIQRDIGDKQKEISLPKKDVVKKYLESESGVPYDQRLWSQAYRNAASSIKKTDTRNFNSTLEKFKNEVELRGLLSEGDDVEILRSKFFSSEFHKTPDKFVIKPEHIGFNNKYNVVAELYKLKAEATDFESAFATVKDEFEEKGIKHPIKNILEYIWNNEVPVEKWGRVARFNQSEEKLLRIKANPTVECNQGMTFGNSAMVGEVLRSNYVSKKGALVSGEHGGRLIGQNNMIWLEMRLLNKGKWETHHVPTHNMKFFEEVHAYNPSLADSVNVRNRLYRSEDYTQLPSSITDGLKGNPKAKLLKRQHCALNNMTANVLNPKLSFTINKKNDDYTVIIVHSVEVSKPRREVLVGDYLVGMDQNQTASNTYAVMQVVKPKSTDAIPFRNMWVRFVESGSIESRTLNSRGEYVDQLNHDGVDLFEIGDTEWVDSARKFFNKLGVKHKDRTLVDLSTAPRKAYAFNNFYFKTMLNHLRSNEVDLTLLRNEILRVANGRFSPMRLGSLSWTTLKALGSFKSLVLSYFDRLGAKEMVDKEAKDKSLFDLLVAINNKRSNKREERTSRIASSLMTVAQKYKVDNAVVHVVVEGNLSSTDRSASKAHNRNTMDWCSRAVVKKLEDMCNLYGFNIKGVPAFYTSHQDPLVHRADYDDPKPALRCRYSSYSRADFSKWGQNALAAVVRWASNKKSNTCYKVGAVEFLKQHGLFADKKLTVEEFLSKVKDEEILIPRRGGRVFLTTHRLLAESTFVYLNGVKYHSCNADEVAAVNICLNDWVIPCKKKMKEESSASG

T2: Cas12i-69 (N295R,N260R,G705R)
T2 chain: T1 chain with E971Q

B1: gRNA-HBB ; HBB target (ssRNA ; dsDNA)
RNA: AGAGAAUGUGUGCAUAGUCACACUAUGCAGAAAUAUUGCUAUUGCCU
DNA 1: TATGCAGAAATATTGCTATTGCCT
DNA 2: AGGCAATAGCAATATTTCTGCATA
B2: gRNA-HBG ; HBG target (ssRNA ; dsDNA)
RNA: AGAGAAUGUGUGCAUAGUCACACACAAGGCAAACUUGACCAAU
DNA 1: ACAAGGCAAACTTGACCAAT
DNA 2: ATTGGTCAAGTTTGCCTTGT
B3: gRNA-TTR ; TTR target (ssRNA ; dsDNA)
RNA: AGAGAAUGUGUGCAUAGUCACACCAGUAAGAUUUGGUGUCUAU
DNA 1: CAGTAAGATTTGGTGTCTAT
DNA 2: ATAGACACCAAATCTTACTG

Legend:
Cas12i-133 = target: T1, Cas12i-133; assay: cell_activity; 293T indels
Method: (§1) Plating: The 293T cell line was plated when the confluence reached 70-80%, and the number of cells seeded in a 24-well plate was 5*10\hat{ }5 cells/well.
(§2) Transfection: After 12-14 hours of plating, transfection was performed. 100 μl of Opti-MEM, 1.5 μl of PEI (Yisheng Bio, Polyethylenimine Linear (PEI) MW25000), 250 ng of the mutant clone plasmid from Example 2, and 250 ng of gRNA plasmid for targeting endogenous genes were added to each well of a 24-well plate. The mixture was incubated at room temperature for 20 minutes and then added to 293T cells for transfection. After transfection overnight, the medium was replaced with fresh medium and cultured for the next period.
(§3) DNA extraction, PCR amplification, and Sanger sequencing: After culturing for 72 hours, cells were washed with PBS, and then 100 μl of cell lysis buffer (Viagen, DirectPCR® Lysis Reagent (Cell)) was added for lysis to obtain a lysate containing genomic DNA. The genomic DNA was amplified in the region near the target sequence, and the PCR product was sent to a sequencing company for Sanger sequencing.

Cas12i-69 = target: T2, Cas12i-69; assay: cell_activity; 293T indels; editing >15%
Method: as §1, §2, §3

Binder	relative indel editing efficiency (Cas12i-133)	relative indel editing efficiency (Cas12i-69)	indel editing efficiency (Cas12i-69)
B1	0.78 fold of Cas12i-69	1.58 fold of Cas12i-30	–
B2	1.57 fold of wild type	–	–
B3	4.95 fold of wild type	–	4.68 fold of wild type
